One molecule from article PMC4822036, “Rab35 GTPase couples cell division with initiation of epithelial apico-basal polarity and lumen opening” (Nature Communications, 2016) can be followed below.

This experiment has as its target T1, 6xHis–Rab35^WT full-length (human, UniProt Q15286 1-201).
T1 construct: Rab35 GTPase, full-length, wild type; Exchanged with 1 mM GDP or 200 μM GTPγS before the pull-down; The species is not repeated for the His construct; also called 6xHis-tagged Rab35^WT; source: E. coli BL21 pLysS, purified (Ni-NTA Magnetic Agarose Beads)
Kind of experiment: pull-down; GST–PODXL tail or GST on glutathione Sepharose 4B beads incubated with 6xHis-Rab proteins exchanged with 1 mM GDP or 200 μM GTPγS; 25 mM Tris pH 7.5, 50 mM NaCl, 10 mM MgCl2, 0.1% Triton X-100, 0.2% BSA; western blot with anti-6xHis. Conditions: both partners purified. Background: A western blot detects proteins with antibodies after separation by electrophoresis.

T1 sequence (Q15286 whole entry): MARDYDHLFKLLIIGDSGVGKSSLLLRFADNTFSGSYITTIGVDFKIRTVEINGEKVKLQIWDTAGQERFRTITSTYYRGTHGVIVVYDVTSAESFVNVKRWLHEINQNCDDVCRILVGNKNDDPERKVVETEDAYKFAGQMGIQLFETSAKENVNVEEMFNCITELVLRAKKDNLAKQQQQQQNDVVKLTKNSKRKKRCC

B1: GST–PODXL WT (aa 476–551) (domain or fragment, rabbit, UniProt Q28645 476-551, looked up)
chain: CHQRLSHRKDQQRLTEELQTVENGYHDNPTLEVMETSAEMQEKKVVNLNGELGDSWIVPLDNLTKDDLDEEEDTHL
notes: The species is not repeated for the GST construct; source: E. coli BL21 pLysS, purified (glutathione Sepharose 4B)
As to B1, the binding result was “binds”.
